B1: GST-Dyn1xA-PRR (dynamin 1xA proline-rich region, amino acids 746-864) [rat] / Amphiphysin 1 [rat (endogenous in rat brain synaptosomes)] (parent complex)
chain 1: NTTTVSTPMPPPVDDSWLQVQSVPAGRRSPTSSPTPQRRAPAVPPARPGSRGPAPGPPPAGSALGGAPPVPSRPGASPDPFGPPPQVPSRPNRAPPGVPSRSGQASPSRPESPRPPFDL
chain 2: MADIKTGIFAKNVQKRLNRAQEKVLQKLGKADETKDEQFEEYVQNFKRQEAEGTRLQRELRGYLAAIKGMQEASMKLTESLHEVYEPDWYGREDVKMVGEKCDVLWEDFHQKLVDGSLLTLDTYLGQFPDIKNRIAKRSRKLVDYDSARHHLEALQSSKRKDESRISKAEEEFQKAQKVFEEFNVDLQEELPSLWSRRVGFYVNTFKNVSSLEAKFHKEIAVLCHKLYEVMTKLGDQHADKAFSIQGAPSDSGPLRIAKTPSPPEEASPLPSPTASPNHTLAPASPAPVRPRSPSQTRKGPPVPPLPKVTPTKELQQENIINFFEDNFVPEINVTTPSQNEVLEVKKEETLLDLDFDPFKPDVTPAGSAAATHSPMSQTLPWDLWTTSTDLVQPASGGSFNDFTQPQDTSLFTMQTDQNMAETEQALPTEPQAEEPPTTAAAPTAGLDLGLEMEEPKEEAAIPPGTDAGETVGTEGSTGEEAEAEKAALPAGEGESPEGAKIDVESTELASSESPQAAELEAGAPQEKVIPSVVIEPASNHEGEEHQETTTGTETREATEDVAPQGPAGEKQELATEPTPLDSQAATPAPAGAVDASLSAGDAAQELPPGFLYKVETLHDFEAANSDELTLQRGDVVLVVPSDSEADQDAGWLVGVKESDWLQYRDLATYKGLFPENFTRHLE

In this test the parent is B1. Description: GST pull-down, quantified Western blot; parent: 60; read off a plot. In general terms: Immunoblotting shows a protein as a band on a membrane.
In the case of chain 1 NTTTVSTPMPPPVDDSWLQVQSVPAGRRSPTSSPTPQRRAPAVPPARPGSRGPAPGPPPAGSALGGAPPVPSRPGASPDPFGPPPQVPSRPNRAPPGVPSASGQASPSRPESPRPPFDL [chain 1 R101A], the response is roughly 51 normalized intensity.

The values are drawn from paper PMC11329700 (2024).
